Series [1] concerns the molecule itself. The series is described as follows: right angle light scattering at 350 nm; full-length SaFtsZf (49 µM) or EcFtsZ (25 µM), 1 mM GTP with or without BeF3-, 10 mM MgCl2; MES assembly buffer, 25 °C.
Series [2] concerns the molecule itself. As to the kind of experiment: right angle light scattering at 350 nm.

The values below come from paper doi:10.1101/2021.11.29.470395 (bioRxiv, 2021).

B1: full-length FtsZ from E. coli (natural protein, Escherichia coli, UniProt P0A9A6 1-383, looked up)
chain: MFEPMELTNDAVIKVIGVGGGGGNAVEHMVRERIEGVEFFAVNTDAQALRKTAVGQTIQIGSGITKGLGAGANPEVGRNAADEDRDALRAALEGADMVFIAAGMGGGTGTGAAPVVAEVAKDLGILTVAVVTKPFNFEGKKRMAFAEQGITELSKHVDSLITIPNDKLLKVLGRGISLLDAFGAANDVLKGAVQGIAELITRPGLMNVDFADVRTVMSEMGYAMMGSGVASGEDRAEEAAEMAISSPLLEDIDLSGARGVLVNITAGFDLRLDEFETVGNTIRAFASDNATVVIGTSLDPDMNDELRVTVVATGIGMDKRPEITLVTNKQVQQPVMDRYQQHGMAPLTQEQKPVAKVVNDNAPQTAKEPDYLDIPAFLRKQAD
notes: FtsZ of Escherichia coli, full length, wild type protein; also called EcFtsZ; source: purified as described [48]
On to B1, for which, in series [1], the binding result is on record as “binds”.

B2: full-length FtsZ from methicillin-resistant S. aureus Mu50/ATCC 700699 (natural protein)
chain: MLEFEQGFNHLATLKVIGVGGGGNNAVNRMIDHGMNNVEFIAINTDGQALNLSKAESKIQIGEKLTRGLGAGANPEIGKKAAEESREQIEDAIQGADMVFVTSGMGGGTGTGAAPVVAKIAKEMGALTVGVVTRPFSFEGRKRQTQAAAGVEAMKAAVDTLIVIPNDRLLDIVDKSTPMMEAFKEADNVLRQGVQGISDLIAVSGEVNLDFADVKTIMSNQGSALMGIGVSSGENRAVEAAKKAISSPLLETSIVGAQGVLMNITGGESLSLFEAQEAADIVQDAADEDVNMIFGTVINPELQDEIVVTVIATGFDDKPTSHGRKSGSTGFGTSVNTSSNATSKDESFTSNSSNAQATDSVSERTHTTKEDDIPSFIRNREERRSRRTRR
On to B2, for which, in series [2], the binding result is “binds”.
